Results reported in US20220040297A1 (Chugai, published 2022).
Numbering of substitutions follows the chain as printed. In names and notes the source's numbering stands.

B1: CE115HA000 H35A (antibody, name in Kabat numbering, V domains shown)
VH: QVQLVESGGGVVQPGRSLRLSCAASGFTFSNAWMAWVRQAPGKGLEWVAQIKAKSNNYATYYAESVKGRFTISRDDSKNSLYLQMNSLKTEDTAVYYCRYVHYGAYYGVDAWGQGTTVTVSS
VL: DIVMTQSPLSLPVTPGEPASISCRSSQSLVHSNRNTYLHWYQQKPGQAPRLLIYKVSNRFSGVPDRFSGSGSGTDFTLKISRVEAEDVGVYYCGQGTQVPYTFGQGTKLEIK
B2: CE115HA000 A32Y (antibody, name in Kabat numbering, V domains shown)
VH: B1 VH with A32Y, A35H
VL: B1 VL
B3: CE115HA000 A52aD (antibody, name in Kabat numbering, V domains shown)
VH: B1 VH with A35H, A53D
VL: B1 VL
B4: CE115HA000 A52aE (antibody, name in Kabat numbering, V domains shown)
VH: B1 VH with A35H, A53E
VL: B1 VL
B5: CE115HA000 A52aG (antibody, name in Kabat numbering, V domains shown)
VH: B1 VH with A35H, A53G
VL: B1 VL
B6: CE115HA000 A52aP (antibody, name in Kabat numbering, V domains shown)
VH: B1 VH with A35H, A53P
VL: B1 VL
B7: CE115HA000 A52aS (antibody, name in Kabat numbering, V domains shown)
VH: B1 VH with A35H, A53S
VL: B1 VL
B8: CE115HA000 A52aV (antibody, name in Kabat numbering, V domains shown)
VH: B1 VH with A35H, A53V
VL: B1 VL
B9: CE115HA000 A56D (antibody, name in Kabat numbering, V domains shown)
VH: B1 VH with A35H, A59D
VL: B1 VL
B10: CE115HA000 A56G (antibody, name in Kabat numbering, V domains shown)
VH: B1 VH with A35H, A59G
VL: B1 VL
B11: CE115HA000 A56K (antibody, name in Kabat numbering, V domains shown)
VH: B1 VH with A35H, A59K
VL: B1 VL
B12: CE115HA000 A56L (antibody, name in Kabat numbering, V domains shown)
VH: B1 VH with A35H, A59L
VL: B1 VL
B13: CE115HA000 A56N (antibody, name in Kabat numbering, V domains shown)
VH: B1 VH with A35H, A59N
VL: B1 VL
B14: CE115HA000 A56Q (antibody, name in Kabat numbering, V domains shown)
VH: B1 VH with A35H, A59Q
VL: B1 VL
B15: CE115HA000 A56Y (antibody, name in Kabat numbering, V domains shown)
VH: B1 VH with A35H, A59Y
VL: B1 VL
B16: CE115HA000 A60D (antibody, name in Kabat numbering, V domains shown)
VH: B1 VH with A35H, A63D
VL: B1 VL
B17: CE115HA000 A60E (antibody, name in Kabat numbering, V domains shown)
VH: B1 VH with A35H, A63E
VL: B1 VL
B18: CE115HA000 A99D (antibody, name in Kabat numbering, V domains shown)
VH: B1 VH with A35H, A105D
VL: B1 VL
B19: CE115HA000 A99F (antibody, name in Kabat numbering, V domains shown)
VH: B1 VH with A35H, A105F
VL: B1 VL
B20: CE115HA000 A99H (antibody, name in Kabat numbering, V domains shown)
VH: B1 VH with A35H, A105H
VL: B1 VL
B21: CE115HA000 A99I (antibody, name in Kabat numbering, V domains shown)
VH: B1 VH with A35H, A105I
VL: B1 VL
B22: CE115HA000 A99S (antibody, name in Kabat numbering, V domains shown)
VH: B1 VH with A35H, A105S
VL: B1 VL
B23: CE115HA000 A99T (antibody, name in Kabat numbering, V domains shown)
VH: B1 VH with A35H, A105T
VL: B1 VL
B24: CE115HA000 A102V (antibody, name in Kabat numbering, V domains shown)
VH: B1 VH with A35H, A111V
VL: B1 VL
B25: CE115HA000 A102Y (antibody, name in Kabat numbering, V domains shown)
VH: B1 VH with A35H, A111Y
VL: B1 VL
B26: CE115HA000 D72E (antibody, name in Kabat numbering, V domains shown)
VH: B1 VH with A35H, D75E
VL: B1 VL
B27: CE115HA000 D72V (antibody, name in Kabat numbering, V domains shown)
VH: B1 VH with A35H, D75V
VL: B1 VL
B28: CE115HA000 D73E (antibody, name in Kabat numbering, V domains shown)
VH: B1 VH with A35H, D76E
VL: B1 VL
B29: CE115HA000 D73G (antibody, name in Kabat numbering, V domains shown)
VH: B1 VH with A35H, D76G
VL: B1 VL
B30: CE115HA000 D73R (antibody, name in Kabat numbering, V domains shown)
VH: B1 VH with A35H, D76R
VL: B1 VL
B31: CE115HA000 D73T (antibody, name in Kabat numbering, V domains shown)
VH: B1 VH with A35H, D76T
VL: B1 VL
B32: CE115HA000 D101A (antibody, name in Kabat numbering, V domains shown)
VH: B1 VH with A35H, D110A
VL: B1 VL
B33: CE115HA000 D101G (antibody, name in Kabat numbering, V domains shown)
VH: B1 VH with A35H, D110G
VL: B1 VL
B34: GLS3000 V94T (antibody, name in Kabat numbering, V domains shown)
VH: B1 VH with A35H
VL: B1 VL with V99T
notes: one-arm format as m2
B35: GLS3000 V94W (antibody, name in Kabat numbering, V domains shown)
VH: B1 VH with A35H
VL: B1 VL with V99W
notes: one-arm format as m2
B36: GLS3000 V94Y (antibody, name in Kabat numbering, V domains shown)
VH: B1 VH with A35H
VL: B1 VL with V99Y
notes: one-arm format as m2
B37: GLS3000 Y32A (antibody, name in Kabat numbering, V domains shown)
VH: B1 VH with A35H
VL: B1 VL with Y37A
notes: one-arm format as m2
B38: GLS3000 Y32D (antibody, name in Kabat numbering, V domains shown)
VH: B1 VH with A35H
VL: B1 VL with Y37D
notes: one-arm format as m2
B39: GLS3000 Y32F (antibody, name in Kabat numbering, V domains shown)
VH: B1 VH with A35H
VL: B1 VL with Y37F
notes: one-arm format as m2
B40: GLS3000 Y32P (antibody, name in Kabat numbering, V domains shown)
VH: B1 VH with A35H
VL: B1 VL with Y37P
notes: one-arm format as m2
B41: GLS3000 Y96D (antibody, name in Kabat numbering, V domains shown)
VH: B1 VH with A35H
VL: B1 VL with Y101D
notes: one-arm format as m2
B42: GLS3000 Y96E (antibody, name in Kabat numbering, V domains shown)
VH: B1 VH with A35H
VL: B1 VL with Y101E
notes: one-arm format as m2
B43: GLS3000 Y96F (antibody, name in Kabat numbering, V domains shown)
VH: B1 VH with A35H
VL: B1 VL with Y101F
notes: one-arm format as m2
B44: GLS3000 Y96H (antibody, name in Kabat numbering, V domains shown)
VH: B1 VH with A35H
VL: B1 VL with Y101H
notes: one-arm format as m2
B45: GLS3000 Y96L (antibody, name in Kabat numbering, V domains shown)
VH: B1 VH with A35H
VL: B1 VL with Y101L
notes: one-arm format as m2

How the values were obtained:
CD3ε homodimer protein [1] = molecular target: T1, CD3ε homodimer protein (human, UniProt P07766 23-126, limits assumed, sulfo-tag or biotin label in some ECL assays); assay: SPR, CD3ε homodimer on chip;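 also: biacore SPR with antibody variants flowed as analyte over amine-coupled CD3ε homodimer on a CM chip, bound amount of each single-residue H chain variant over that of parent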
T1 construct: also called human CD3ε homodimer protein; CD3 (CD3ε)

CD3ε homodimer protein [2] = molecular target: CD3ε homodimer protein (human, UniProt P07766 23-126, limits assumed); assay: SPR, immobilized CD3ε homodimer;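 also: biacore T200 surface plasmon resonance at 25 °C, antibody variants flowed as analytes over amine-coupled CD3ε homodimer on a CM4 chip, variant binding amount divided by that of GLS3000 antibody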
Sequence of CD3ε homodimer protein (human, UniProt P07766 23-126, limits assumed) (P07766 23-126 limits assumed): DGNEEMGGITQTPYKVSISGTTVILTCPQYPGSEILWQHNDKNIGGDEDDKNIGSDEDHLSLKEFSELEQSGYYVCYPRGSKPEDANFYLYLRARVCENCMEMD

T1 sequence (P07766 23-126 limits assumed): as above

Binder	ratio of amounts bound vs CE115HA000 (CD3ε homodimer protein [1])	ratio of amounts bound (vs GLS3000) (CD3ε homodimer protein [2])
B1	0.17	–
B2	0.33	–
B3	1.34	–
B4	0.57	–
B5	0.81	–
B6	0.15	–
B7	1.05	–
B8	0.52	–
B9	0.51	–
B10	0.61	–
B11	1.35	–
B12	0.8	–
B13	0.87	–
B14	0.76	–
B15	0.66	–
B16	0.99	–
B17	0.94	–
B18	0.28	–
B19	1.43	–
B20	1.48	–
B21	1.13	–
B22	0.82	–
B23	0.84	–

Binder	ratio of amounts bound vs CE115HA000 (CD3ε homodimer protein [1])	ratio of amounts bound (vs GLS3000) (CD3ε homodimer protein [2])
B24	1.43	–
B25	0.91	–
B26	1.05	–
B27	1.43	–
B28	0.73	–
B29	0.43	–
B30	1.04	–
B31	0.63	–
B32	1.26	–
B33	1.38	–
B34	–	0.93
B35	–	0.58
B36	–	0.63
B37	–	0.24
B38	–	0.23
B39	–	0.29
B40	–	0.24
B41	–	0.17
B42	–	0.17
B43	–	1.17
B44	–	0.23
B45	–	0.32
